In patent publication US20120269801A1:

What was measured:
[1] = target: CD59 (target protein) (human) (UniProt P13987); test: phage ELISA, CD59 coated directly, anti-M13-HRP; helper phage control
[2] = target: CD59 in membrane extract of lysed CD59-expressing red blood cells (UniProt P13987); test: phage ELISA, membrane extract of CD59(+) red cells coated, anti-M13-HRP; helper phage control

For M13KO7 helper phage, the OD490 (Ag+ phage+) [1] was 0.046 OD and the OD490 (Ag+ phage+, CD59(+)red cell) [2] was 0.046 OD.
